For 3 variants, response results are on record in paper PMC5264599.

First the molecules themselves.
B1: wild type p16-GFP [not stated] / CDK4 (Cyclin-dependent protein kinase), endogenous in 293T cells [human (endogenous in 293T)] (parent)
chain 1: MEPAAGSSMEPSADWLATAAARGRVEEVRALLEAGALPNAPNSYGRRPIQVMMMGSARVAELLLLHGAEPNCADPATLTRPVHDAAREGFLDTLVVLHRAGARLDVRDAWGRLPVDLAEELGHRDVARYLRAAAGGTRGSNHARIDAAEGPSDIPD
chain 2: MATSRYEPVAEIGVGAYGTVYKARDPHSGHFVALKSVRVPNGGGGGGGLPISTVREVALLRRLEAFEHPNVVRLMDVCATSRTDREIKVTLVFEHVDQDLRTYLDKAPPPGLPAETIKDLMRQFLRGLDFLHANCIVHRDLKPENILVTSGGTVKLADFGLARIYSYQMALTPVVVTLWYRAPEVLLQSTYATPVDMWSVGCIFAEMFRRKPLFCGNSEADQLGKIFDLIGLPPEDDWPRDVSLPRGAFPPRGPRPVQSVVPEMEESGAQLLLEMLTFNPHKRISAFRALQHSYLHKDEGNPE

The test covers variants of B1. Kind of test: co-immunoprecipitation (anti-GFP IP, anti-CDK4 immunoblot, photodensitometry). The conditions noted are these: with CDK4 (Cyclin-dependent protein kinase), scale: relative intensity.
[1] abbreviates: 1 mM H2O2 for 24 h, read off a plot.

Turning to chain 1 S152A, the response reads like this: under setting [1], 1.7; (no H2O2, read off a plot) 1.1.
Regarding chain 1 S8A, the response reads like this: under setting [1], 1.4; (no H2O2, read off a plot) 0.92.
Take chain 1 S140A: the response turned out to be 0.92 under setting [1] and 0.85 (no H2O2, read off a plot).
